Blank lines part the entries; values can stand above or below the binder they belong to.
How the values were obtained:
[1] = target: T1, HGREM1-His (ACRO) (human, UniProt O60565 25-184); test: BLI Fortebio, human gremlin-his on NTA biosensor, antibody 100, 50, 25 nM
T1 construct: Lys25-Asp184 of NP_037504 with C-terminal polyhistidine tag (ACRO GR1-H52H3); they are put here; also called hGREM1 (ACRO); human gremlin (ACRO)
T1 sequence: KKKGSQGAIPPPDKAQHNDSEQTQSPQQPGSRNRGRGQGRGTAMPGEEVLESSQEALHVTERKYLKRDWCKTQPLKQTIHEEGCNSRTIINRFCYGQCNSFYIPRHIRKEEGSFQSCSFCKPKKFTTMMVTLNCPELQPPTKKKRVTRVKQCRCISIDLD
Description: The affinity of the humanized antibodies were also measured by Fortebio. Human gremlin protein was diluted with kinetics buffer to get a concentration of 2 μg/ml. 0 nM was used as a reference control. Antibodies to be tested were diluted with ForteBio kinetics buffer (PBS pH 7.4, 0.1% BSA+0.002% Tween-20) to a concentration of 100 nM, 50 nM, and 25 nM. Human gremlin-his was immobilized onto NTA biosensor. The baseline was detected for 60 seconds, and then anti-gremlin antibody association was detected for 120 seconds to get the Kₒₙ factor data. Followed by dissociation in kinetic buffer for 90 seconds to get the Koff factor data.

[2] = target: T1, HGREM1-His (ACRO); test: ELISA: coated BMP4, gremlin titrated (sheet title: BMP2/4/7 binding to human gremlin-his)
Description: (§1) Gremlin is known to be able to bind to BMP proteins and is validated by the present disclosure. Briefly, gremlin-Fc was tested for its binding ability to BMP 2/4/7 immobilized on plate. Briefly, plates were coated with […] of recombinant human BMP2, BMP4) (hBMP4, Peprotech) or human BMP7 (R&D) overnight and wild-type gremlin-1 was added to coated plates and allowed to incubate for an additional hour at RT. The plates were then washed and plate bound biotin-hGremlin was detected with neutravidin conjugated with HRP (thermo). Plates were then developed with a TMB solution and stopped by adding stop solution. The plates were read on a plate reader at 450 nm.

[3] = target: T2, Gremlin-Fc (human, UniProt O60565 25-184); test: ELISA, coated BMP4 0.5 ug/ml
T2 construct: also called HGREM1-Fc (ACRO); wild-type gremlin-1
T2 sequence: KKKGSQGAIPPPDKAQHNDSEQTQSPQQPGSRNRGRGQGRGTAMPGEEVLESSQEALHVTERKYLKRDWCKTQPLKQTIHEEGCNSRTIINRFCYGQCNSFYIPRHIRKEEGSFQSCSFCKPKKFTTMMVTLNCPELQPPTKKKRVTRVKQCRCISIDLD
Description: as §1

[4] = target: T3, BMP4 with his-tag (Homo sapiens (Human), UniProt P12644 293-408, Natural BMP4 is a disulfide-linked homodimer; one protomer is given. The his-tag is left out.); test: ELISA: anti-human Fc coated, XM5-hFc supernatant (1:32) captured, his-tagged BMP4 titrated, anti-his-HRP
T3 construct: also called BMPs (BMP2/4/7) with his-tag
T3 sequence: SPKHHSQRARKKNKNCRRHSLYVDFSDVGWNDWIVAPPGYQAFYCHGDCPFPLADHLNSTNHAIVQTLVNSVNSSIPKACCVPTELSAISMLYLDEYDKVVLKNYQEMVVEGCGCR

[5] = target: T4, BMP7 with his-tag (Homo sapiens (Human), UniProt P18075 293-431, Natural BMP7 is a disulfide-linked homodimer; one protomer is given. The his-tag is left out.); test: ELISA: anti-human Fc coated, XM5-hFc supernatant (1:32) captured, his-tagged BMP7 titrated, anti-his-HRP
T4 construct: also called BMPs (BMP2/4/7) with his-tag
T4 sequence: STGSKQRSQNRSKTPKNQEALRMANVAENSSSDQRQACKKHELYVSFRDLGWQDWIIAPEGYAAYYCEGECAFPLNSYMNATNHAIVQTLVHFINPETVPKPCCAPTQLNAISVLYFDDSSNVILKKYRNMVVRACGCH

[6] = target: T5, BMP2 with his-tag (Homo sapiens (Human), UniProt P12643 283-396, Natural BMP2 is a disulfide-linked homodimer; one protomer is given. The his-tag is left out.); test: ELISA: anti-human Fc coated, XM5-hFc supernatant (1:32) captured, his-tagged BMP2 titrated, anti-his-HRP
T5 construct: soluble his-tagged BMP used on captured XM5-Fc or Gremlin-Fc; also called BMPs (BMP2/4/7) with his-tag

Kd [1]: < 1 nM
B1: humanized anti-gremlin1 antibody 14E3 (variant not stated) (antibody, V domains shown)
VH: QVQLVQSGSELKKPGASVKVSCKASGYTFTTYGMAWMRQAPGQGLEWMGWINTLSGEPTYADDFKGRFVFSLDTSVSTAYLQISSLKAEDTAVYYCAREPMDYWGQGTMVTVSS
VL: DVVMTQSPLSLPVTLGQPASISCKSSQSLLDSDGKTYLSWLQQRPGQSPRRLIYLVSKLDSGVPDRFSGSGSGTDFTLKISRVEAEDVGVYYCWQGAHFPLTFGQGTKLEIK
notes: also called Hu14E3; humanized 14E3

binding result [2]: binds | binding result [3]: binds
B2: recombinant human BMP4 (ligand, UniProt P12644 293-408, looked up)
chain: SPKHHSQRARKKNKNCRRHSLYVDFSDVGWNDWIVAPPGYQAFYCHGDCPFPLADHLNSTNHAIVQTLVNSVNSSIPKACCVPTELSAISMLYLDEYDKVVLKNYQEMVVEGCGCR
notes: also called hBMP4

binding result [4]: no binding (tested: 2.00 ug/ml) | binding result [5]: no binding (tested: 2.00 ug/ml) | binding result [6]: no binding (tested: 2.00 ug/ml)
B3: XM5-Fc (Fc fusion, not shown: a dimerising Fc or GST)
chain: KKKGSQGAIPPPDKAQHNDSEQTQSPQQPGSRNRGRGQGRGTAMPGEEVLESSQEALHVTERKYLKRDWCKTQPLKQTIHEEGCNSRTIINRFCYGQCFSYSVPNTFPQSTESLVHCDSCKPKKFTTMMVTLNCPELQPPTKKKRVTRVKQCRCISIDLD
notes: also called gremlin 1-DAN fusion protein
